Measurements reported in paper PMC9482650, “Quantitative fragmentomics allow affinity mapping of interactomes” (Nature Communications, 2022).

Key:
Experiment in all cases: holdup assay
Set-up in all cases: key: below the threshold = too weak to quantify, mostly under pKd 3.1 to 4
GORASP2, Q9H8Y8 = molecular target: GORASP2, Q9H8Y8
LNX2_3, Q8N448 = molecular target: T1, LNX2_3, Q8N448
T1 sequence (Q8N448 463-564, limits assumed, looked up): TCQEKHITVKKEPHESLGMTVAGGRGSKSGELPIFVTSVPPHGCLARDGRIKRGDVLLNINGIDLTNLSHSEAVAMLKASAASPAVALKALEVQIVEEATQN

HTRA2, O43464 = molecular target: HTRA2, O43464
Sequence of HTRA2, O43464 (O43464 355-458): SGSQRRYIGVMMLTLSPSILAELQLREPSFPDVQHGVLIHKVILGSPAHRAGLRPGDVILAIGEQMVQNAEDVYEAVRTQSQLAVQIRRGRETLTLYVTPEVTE

MAGI3_2, Q5TCQ9 = molecular target: MAGI3_2, Q5TCQ9
Sequence of MAGI3_2, Q5TCQ9 (Q5TCQ9 398-503): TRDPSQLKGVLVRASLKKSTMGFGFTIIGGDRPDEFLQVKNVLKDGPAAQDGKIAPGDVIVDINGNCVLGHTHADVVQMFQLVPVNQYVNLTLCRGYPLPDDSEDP

TJP1_3, Q07157 = molecular target: TJP1_3, Q07157
Sequence of TJP1_3, Q07157 (Q07157 416-512): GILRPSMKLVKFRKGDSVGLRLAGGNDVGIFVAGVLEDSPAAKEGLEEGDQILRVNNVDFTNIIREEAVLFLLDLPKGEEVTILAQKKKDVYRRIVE

TJP3_3, O95049 = molecular target: T2, TJP3_3, O95049
T2 sequence (O95049 375-456, limits assumed, looked up): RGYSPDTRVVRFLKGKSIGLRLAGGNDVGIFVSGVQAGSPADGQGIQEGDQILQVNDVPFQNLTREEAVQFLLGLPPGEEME

GRIP2_4, Q9C0E4 = molecular target: GRIP2_4, Q9C0E4
Sequence of GRIP2_4, Q9C0E4 (Q9C0E4 446-548): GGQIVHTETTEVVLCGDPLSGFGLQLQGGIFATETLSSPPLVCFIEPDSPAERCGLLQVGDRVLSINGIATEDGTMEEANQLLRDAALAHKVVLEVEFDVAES

MPP7, Q5T2T1 = molecular target: T3, MPP7, Q5T2T1
T3 sequence (Q5T2T1 134-230, limits assumed, looked up): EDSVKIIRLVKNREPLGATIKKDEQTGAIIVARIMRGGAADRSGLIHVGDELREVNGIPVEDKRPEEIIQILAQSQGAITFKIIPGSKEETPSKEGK

HTRA1, Q92743 = molecular target: HTRA1, Q92743
Sequence of HTRA1, Q92743 (Q92743 360-477): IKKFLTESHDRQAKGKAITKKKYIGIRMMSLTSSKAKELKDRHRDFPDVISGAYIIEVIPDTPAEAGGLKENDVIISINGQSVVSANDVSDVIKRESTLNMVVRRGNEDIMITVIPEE

LAP2, Q96RT1 = molecular target: LAP2, Q96RT1
Sequence of LAP2, Q96RT1 (Q96RT1 other isoform, or with tags, fused parts or gaps): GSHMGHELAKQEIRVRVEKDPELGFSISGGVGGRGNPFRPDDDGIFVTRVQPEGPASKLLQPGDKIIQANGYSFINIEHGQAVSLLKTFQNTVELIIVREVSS

APBA3_1, O96018 = molecular target: T4, APBA3_1, O96018
T4 sequence (O96018 389-490, limits assumed, looked up): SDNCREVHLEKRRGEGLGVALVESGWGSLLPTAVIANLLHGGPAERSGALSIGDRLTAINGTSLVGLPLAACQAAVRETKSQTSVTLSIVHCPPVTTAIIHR

GRIP1_5, Q9Y3R0 = molecular target: T5, GRIP1_5, Q9Y3R0
T5 sequence (Q9Y3R0 568-668, limits assumed, looked up): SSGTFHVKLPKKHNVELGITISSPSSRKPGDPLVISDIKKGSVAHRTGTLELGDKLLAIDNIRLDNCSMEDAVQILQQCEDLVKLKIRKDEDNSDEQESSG

NHERF4_1, Q86UT5-2 = molecular target: NHERF4_1, Q86UT5-2
Sequence of NHERF4_1, Q86UT5-2 (Q86UT5 other isoform, or with tags, fused parts or gaps): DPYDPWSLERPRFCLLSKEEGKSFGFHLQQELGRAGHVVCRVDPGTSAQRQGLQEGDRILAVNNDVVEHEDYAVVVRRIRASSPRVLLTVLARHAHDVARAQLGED

LNX1_2, Q8TBB1 = molecular target: LNX1_2, Q8TBB1
Sequence of LNX1_2, Q8TBB1 (Q8TBB1 371-470): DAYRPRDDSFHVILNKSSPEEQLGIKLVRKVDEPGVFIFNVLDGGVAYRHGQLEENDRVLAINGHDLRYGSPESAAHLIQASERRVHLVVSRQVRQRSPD

PDZRN4_1, Q6ZMN7 = molecular target: PDZRN4_1, Q6ZMN7
Sequence of PDZRN4_1, Q6ZMN7 (Q6ZMN7 213-318): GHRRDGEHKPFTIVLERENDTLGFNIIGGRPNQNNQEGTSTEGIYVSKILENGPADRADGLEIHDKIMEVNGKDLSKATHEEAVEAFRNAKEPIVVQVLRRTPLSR

DVL3, Q92997 = molecular target: T6, DVL3, Q92997
T6 sequence (Q92997 244-331, limits assumed, looked up): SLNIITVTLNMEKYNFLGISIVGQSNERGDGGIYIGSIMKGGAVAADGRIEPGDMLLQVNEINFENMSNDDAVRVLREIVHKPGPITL

SNTB1, Q13884 = molecular target: T7, SNTB1, Q13884; settings: plain residues with an end cap or a label only (N-terminal biotin on a linker: ttds)
T7 sequence (Q13884 107-205, limits assumed, looked up): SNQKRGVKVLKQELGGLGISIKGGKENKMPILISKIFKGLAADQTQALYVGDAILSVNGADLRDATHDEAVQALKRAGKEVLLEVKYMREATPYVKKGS

Inadl_6, Q8NI35 = molecular target: Inadl_6, Q8NI35
Sequence of Inadl_6, Q8NI35 (Q8NI35 1058-1167): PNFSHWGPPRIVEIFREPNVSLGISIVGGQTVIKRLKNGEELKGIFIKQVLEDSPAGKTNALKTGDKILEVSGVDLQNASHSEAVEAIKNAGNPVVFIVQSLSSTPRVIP

GOPC, Q9HD26 = molecular target: GOPC, Q9HD26
CARD11, Q9BXL7 = molecular target: T8, CARD11, Q9BXL7
T8 sequence (Q9BXL7 662-765, limits assumed, looked up): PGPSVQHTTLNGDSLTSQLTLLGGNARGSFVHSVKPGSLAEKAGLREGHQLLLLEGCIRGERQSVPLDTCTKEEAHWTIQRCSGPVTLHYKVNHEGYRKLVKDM

GRIP2_6, Q9C0E4 = molecular target: GRIP2_6, Q9C0E4
Sequence of GRIP2_6, Q9C0E4 (Q9C0E4 648-740): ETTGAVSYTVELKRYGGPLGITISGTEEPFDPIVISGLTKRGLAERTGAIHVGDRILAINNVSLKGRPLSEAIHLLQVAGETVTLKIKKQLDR

LNX1_1, Q8TBB1 = molecular target: LNX1_1, Q8TBB1
Sequence of LNX1_1, Q8TBB1 (Q8TBB1 261-371): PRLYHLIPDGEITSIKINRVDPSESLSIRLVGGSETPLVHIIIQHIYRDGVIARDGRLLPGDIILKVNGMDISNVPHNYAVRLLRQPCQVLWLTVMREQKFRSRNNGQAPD

HTRA3, P83110 = molecular target: T9, HTRA3, P83110
T9 sequence (P83110 354-453, limits assumed, looked up): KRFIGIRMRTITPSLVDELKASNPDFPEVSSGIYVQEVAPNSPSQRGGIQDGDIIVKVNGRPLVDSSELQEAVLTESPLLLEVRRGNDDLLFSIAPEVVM

DLG2_2, Q15700 = settings: plain residues with an end cap or a label only (N-terminal biotin on a linker: ttds)
Sequence of DLG2_2, Q15700 (Q15700 189-283): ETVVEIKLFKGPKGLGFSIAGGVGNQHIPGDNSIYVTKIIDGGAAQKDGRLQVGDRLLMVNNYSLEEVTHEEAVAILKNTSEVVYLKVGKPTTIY

DLG4_3, P78352 = molecular target: DLG4_3, P78352
Sequence of DLG4_3, P78352 (P78352 306-403): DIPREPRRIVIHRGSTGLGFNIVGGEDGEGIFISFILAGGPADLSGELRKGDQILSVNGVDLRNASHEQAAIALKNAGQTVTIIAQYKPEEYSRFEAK

FRMPD3, Q5JV73 = molecular target: FRMPD3, Q5JV73
Sequence of FRMPD3, Q5JV73 (Q5JV73 12-100): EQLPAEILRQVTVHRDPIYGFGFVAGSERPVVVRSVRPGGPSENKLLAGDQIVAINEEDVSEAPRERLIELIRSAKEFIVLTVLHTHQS

LRRC7, Q96NW7 = molecular target: T10, LRRC7, Q96NW7
T10 sequence (Q96NW7 1440-1537, limits assumed, looked up): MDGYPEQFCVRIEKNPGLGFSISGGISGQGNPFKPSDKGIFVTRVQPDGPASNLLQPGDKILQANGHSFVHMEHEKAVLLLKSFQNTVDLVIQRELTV

[1] = plain residues with an end cap or a label only (N-terminal biotin on a linker: ttds)
[2] = plain residues with an end cap or a label only (N-terminal biotin on a linker: ahx)

## NDPAWDETNL [ARHGEF7, Q14155;Q14155-1]
GORASP2, Q9H8Y8; [1]
  pKd: below the threshold
LNX2_3, Q8N448; [1]
  pKd: below the threshold
HTRA2, O43464; [1]
  pKd: below the threshold
MAGI3_2, Q5TCQ9; [1]
  pKd: below the threshold
TJP1_3, Q07157; [1]
  pKd: below the threshold
TJP3_3, O95049; [1]
  pKd: below the threshold
GRIP2_4, Q9C0E4; [1]
  pKd: below the threshold
MPP7, Q5T2T1; [1]
  pKd: below the threshold
HTRA1, Q92743; [1]
  pKd: 3.92
LAP2, Q96RT1; [1]
  pKd: 4.46
APBA3_1, O96018; [1]
  pKd: below the threshold
GRIP1_5, Q9Y3R0; [1]
  pKd: below the threshold
NHERF4_1, Q86UT5-2; [1]
  pKd: below the threshold
LNX1_2, Q8TBB1; [1]
  pKd: below the threshold
PDZRN4_1, Q6ZMN7; [1]
  pKd: 3.98
DVL3, Q92997; [1]
  pKd: below the threshold
SNTB1, Q13884
  pKd: 4.26
Inadl_6, Q8NI35; [1]
  pKd: 4.09
GOPC, Q9HD26; [1]
  pKd: 4.13
CARD11, Q9BXL7; [1]
  pKd: below the threshold
GRIP2_6, Q9C0E4; [1]
  pKd: below the threshold
LNX1_1, Q8TBB1; [1]
  pKd: below the threshold
HTRA3, P83110; [1]
  pKd: below the threshold
DLG2_2, Q15700
  pKd: below the threshold
DLG4_3, P78352; [1]
  pKd: below the threshold

## EMDRRPATVV [PLCB4, Q15147]
GORASP2, Q9H8Y8; [1]
  pKd: 4.23
LNX2_3, Q8N448; [1]
  pKd: below the threshold
HTRA2, O43464; [1]
  pKd: below the threshold
MAGI3_2, Q5TCQ9; [1]
  pKd: 4.65
TJP1_3, Q07157; [1]
  pKd: below the threshold
TJP3_3, O95049; [1]
  pKd: below the threshold
FRMPD3, Q5JV73; [1]
  pKd: 3.64
GRIP2_4, Q9C0E4; [1]
  pKd: below the threshold
MPP7, Q5T2T1; [1]
  pKd: below the threshold
HTRA1, Q92743; [1]
  pKd: 4.23
LAP2, Q96RT1; [1]
  pKd: below the threshold
APBA3_1, O96018; [1]
  pKd: below the threshold
GRIP1_5, Q9Y3R0; [1]
  pKd: below the threshold
NHERF4_1, Q86UT5-2; [1]
  pKd: below the threshold
LNX1_2, Q8TBB1; [1]
  pKd: 3.67
LRRC7, Q96NW7; [1]
  pKd: below the threshold
PDZRN4_1, Q6ZMN7; [1]
  pKd: 3.91
DVL3, Q92997; [1]
  pKd: below the threshold
SNTB1, Q13884
  pKd: 4.71
GOPC, Q9HD26; [1]
  pKd: 4.04
CARD11, Q9BXL7; [1]
  pKd: 3.64
GRIP2_6, Q9C0E4; [1]
  pKd: 3.67
LNX1_1, Q8TBB1; [1]
  pKd: 4.01
HTRA3, P83110; [1]
  pKd: below the threshold
DLG2_2, Q15700
  pKd: 4.23
DLG4_3, P78352; [1]
  pKd: 3.95

## LSDPSVSTVV [GRIN1, Q05586;Q05586-2]
GORASP2, Q9H8Y8; [2]
  pKd: below the threshold
LNX2_3, Q8N448; [2]
  pKd: below the threshold
HTRA2, O43464; [2]
  pKd: below the threshold
MAGI3_2, Q5TCQ9; [2]
  pKd: below the threshold
TJP1_3, Q07157; [2]
  pKd: below the threshold
TJP3_3, O95049; [2]
  pKd: below the threshold
FRMPD3, Q5JV73; [2]
  pKd: below the threshold
GRIP2_4, Q9C0E4; [2]
  pKd: below the threshold
MPP7, Q5T2T1; [2]
  pKd: below the threshold
HTRA1, Q92743; [2]
  pKd: 4.32
LAP2, Q96RT1; [2]
  pKd: below the threshold
APBA3_1, O96018; [2]
  pKd: below the threshold
GRIP1_5, Q9Y3R0; [2]
  pKd: below the threshold
NHERF4_1, Q86UT5-2; [2]
  pKd: below the threshold
LNX1_2, Q8TBB1; [2]
  pKd: below the threshold
LRRC7, Q96NW7; [2]
  pKd: below the threshold
PDZRN4_1, Q6ZMN7; [2]
  pKd: below the threshold
DVL3, Q92997; [2]
  pKd: below the threshold
Inadl_6, Q8NI35; [2]
  pKd: below the threshold
GOPC, Q9HD26; [2]
  pKd: below the threshold
CARD11, Q9BXL7; [2]
  pKd: below the threshold
GRIP2_6, Q9C0E4; [2]
  pKd: below the threshold
LNX1_1, Q8TBB1; [2]
  pKd: 4.17
HTRA3, P83110; [2]
  pKd: below the threshold
DLG4_3, P78352; [2]
  pKd: below the threshold

## RLQRRRETQV [HPV18-E6, P06463]
GORASP2, Q9H8Y8; [1]
  pKd: 3.89
LNX2_3, Q8N448; [1]
  pKd: below the threshold
HTRA2, O43464; [1]
  pKd: below the threshold
MAGI3_2, Q5TCQ9; [1]
  pKd: 5.56
TJP1_3, Q07157; [1]
  pKd: below the threshold
TJP3_3, O95049; [1]
  pKd: below the threshold
FRMPD3, Q5JV73; [1]
  pKd: below the threshold
GRIP2_4, Q9C0E4; [1]
  pKd: below the threshold
MPP7, Q5T2T1; [1]
  pKd: below the threshold
HTRA1, Q92743; [1]
  pKd: below the threshold
LAP2, Q96RT1; [1]
  pKd: 3.61
APBA3_1, O96018; [1]
  pKd: below the threshold
GRIP1_5, Q9Y3R0; [1]
  pKd: below the threshold
NHERF4_1, Q86UT5-2; [1]
  pKd: below the threshold
LNX1_2, Q8TBB1; [1]
  pKd: below the threshold
LRRC7, Q96NW7; [1]
  pKd: 3.14
PDZRN4_1, Q6ZMN7; [1]
  pKd: 4.48
DVL3, Q92997; [1]
  pKd: below the threshold
SNTB1, Q13884
  pKd: 5.23
Inadl_6, Q8NI35; [1]
  pKd: below the threshold
CARD11, Q9BXL7; [1]
  pKd: below the threshold
GRIP2_6, Q9C0E4; [1]
  pKd: below the threshold
LNX1_1, Q8TBB1; [1]
  pKd: below the threshold
HTRA3, P83110; [1]
  pKd: below the threshold
DLG2_2, Q15700
  pKd: 5.19
DLG4_3, P78352; [1]
  pKd: 5.74
